Patent publication US20160130303A1 (RAMOT AT TEL AVIV UNIVERSITY, published 2016)
Where no end group is shown, it is not given here. [ ]: non-standard residue; d: D form. The star is where a group is joined. Myristoyl = CCCCCCCCCCCCCC(=O)*; pS = N[C@@H](COP(=O)(O)O)C(=O)O

Biological target: wild-type (WT) GSK-3β (human, UniProt P49841 1-420, phosphorylated at Tyr 216 (shown by western blot))
Experiment: cell-based or functional assay

wild-type (WT) GSK-3β, sequence (P49841 other isoform, or with tags, fused parts or gaps limits assumed): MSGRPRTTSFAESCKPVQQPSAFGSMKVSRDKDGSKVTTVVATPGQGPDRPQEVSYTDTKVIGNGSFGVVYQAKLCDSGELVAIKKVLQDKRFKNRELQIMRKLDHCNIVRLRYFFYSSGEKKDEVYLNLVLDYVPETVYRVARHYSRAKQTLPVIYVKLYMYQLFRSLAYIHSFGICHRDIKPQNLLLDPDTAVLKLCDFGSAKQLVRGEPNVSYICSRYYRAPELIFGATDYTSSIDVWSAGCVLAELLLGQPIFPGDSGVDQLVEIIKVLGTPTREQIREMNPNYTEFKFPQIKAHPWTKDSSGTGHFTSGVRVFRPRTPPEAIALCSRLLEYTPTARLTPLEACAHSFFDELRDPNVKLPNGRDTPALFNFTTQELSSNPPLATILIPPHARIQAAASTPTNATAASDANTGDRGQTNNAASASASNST

Row | Binder | IC50, in vitro kinase assays with GSK-3β at increasing inhibitor concentrations [nM] | inhibition of GSK-3β in in vitro kinase assays (substrate phosphorylation, no inhibitor = 100%)
1 | Myristoyl-GKEAPPAPPP[pS]P [L806-mts, Myr-GKEAPPAPPPS(p)P] | ~1000 | 
2 | KEAPPAPPA[pS]P [PQ9A (L803 variant where Gln9 was replaced by alanine)] |  | ~2 fold relative to L803
